Results on 1 molecule are retold here after US7629135B2, “Toll-like receptor agonists and antagonists and methods of use thereof” (The Board of Trustees of the University of Illinois, priority 2006, dated 2009).

The subject of assay [1] is Human peripheral blood monocytes (PBMC). Kind of assay: SAA-induced G-CSF secretion in human PBMC (ELISA). The note with it: SAA 1 μM. Type of assay: cell-based. On the procedure: SAA induces G-CSF expression in monocytes and macrophages: To determine whether SAA plays a role in neutrophilia, the ability of SAA to stimulate G-CSF expression was investigated. Human peripheral blood monocytes (PBMC) were incubated with SAA, and the concentration of secreted G-CSF in the culture medium was determined at various time points after stimulation. The concentration of SAA used in this experiment (1 μM) was well within its physiological range (0.08 μM to 80 μM). […] Since subsequent studies used mice for measurement of G-CSF secretion and neutrophilia, SAA-induced G-CSF expression in mouse bone marrow derived macrophages (BMDM) was determined, of which 98% were F4/80^+ CD14^+ based on flow cytometry analysis. […] The basal level of G-CSF remained stable at approximately 42 pg/ml/10^6 cells over the entire course of incubation.
Cell preparation and culture: Human peripheral blood monocytes were prepared from fresh, heparinized venous blood by Ficoll-Hypaque density-gradient centrifugation. […]
Measurement of G-CSF expression: To measure the secreted G-CSF from human monocytes and mouse macrophages in vitro, cells were placed in serum-free DMEM medium and stimulated with the indicated ligands. […] Real-time quantitative PCR was performed on a ABI PRISM 7000 Sequence Detection System (Applied Biosystems) as described previously (He et al., 2006). […]

The test system of assay [2] is RelA/p65 binding to the CK-1 site of the G-CSF promoter. The assay can be described thus: Chromatin immunoprecipitation (ChIP) assay in RAW264.7 cells. Type of assay: cell-based, mouse. To be noted: SAA 1 μM or TNFα 50 ng/ml. How it is done:
To investigate the mechanism for SAA-induced G-CSF production, the level of G-CSF transcript in SAA-stimulated BMDM was determined. […] The induction of G-CSF transcript peaked at 4 h after SAA stimulation. Since transcription of the G-CSF gene involves NF-κB binding to the RelA/p65 consensus element in the CK-1 site of the G-CSF promoter (Dunn et al., 1994; Hareng and Hartung, 2002), the role of NF-κB in SAA-stimulated G-CSF expression was determined. […] Using oligonucleotide probe based on the sequence of the CK-1 site (−161 to −152 in the G-CSF promoter), a protein •DNA complex (FIG. 2C) was identified. […] Inclusion of a RelA/p65 antibody blocking peptide in the assay abrogated the immunoprecipitation (FIG. 2D).
ChIP assay: Reagents were obtained from Upstate Biotechnology, and ChIP assay was performed as per manufacturers specifications with minor modifications. Briefly, a total of 1×10^7 RAW264.7 cells were harvested and resuspended in a serum-free DMEM medium absence or presence of 1 μM SAA, or 50 ng/ml of TNFα, and incubated for 30 or 60 min at 37° C. Following stimulation, cells were crosslinked and then washed and resuspended in SDS-lysis buffer, and were sonicated (4 times for 10 s each, with a setting at ‘4’ on a Fisher Sonic 60 dismembrenator). […] The PCR products were analyzed on a 2.5% agarose gel.

B1: SAA: Recombinant human SAA purchased from PeproTech; major acute-phase protein of 104 amino acids (protein, UniProt P0DJI8 19-122, looked up)
Serum amyloid A-1 protein: RSFFSFLGEAFDGARDMWRAYSDMREANYIGSDKYFHARGNYDAAKRGPGGAWAAEVITDARENIQRFFGHGAEDSLADQAANEWGRSGKDPNHFRPAGLPEKY
With B1, the figures for the “secreted G-CSF” value in assay [1] (after 4 h of stimulation) and in assay [1] (end of 24 h incubation) were 2,546 pg/ml/10^6 cells and 7,340 pg/ml/10^6 cells, respectively. In addition, in assay [2], the “pull-down of CK-1 DNA fragment by anti-RelA/p65 antibody” value was “able to pull-down the CK-1 DNA fragment”.
